Experiments:
[1] = biological target: A021 (SARS-related coronavirus A021)
[2] = biological target: CS24 (SARS-related coronavirus CS24)
[3] = biological target: Civet 007-2004 (civet SARS-related coronavirus 007-2004)
[4] = biological target: Frankfurt 1 (SARS-CoV isolate Frankfurt 1)
[5] = biological target: GD-Pangolin (GD-Pangolin coronavirus)
[6] = biological target: LYRa11 (bat coronavirus LYRa11)
[7] = biological target: Rs4231 (bat coronavirus Rs4231)
[8] = biological target: SHC014 (bat coronavirus Rs SHC014)
[9] = biological target: WIV1 (bat coronavirus WIV1)
[10] = biological target: RaTG13 (bat coronavirus RaTG13)

Chain of VYD224 (antibody) (VH): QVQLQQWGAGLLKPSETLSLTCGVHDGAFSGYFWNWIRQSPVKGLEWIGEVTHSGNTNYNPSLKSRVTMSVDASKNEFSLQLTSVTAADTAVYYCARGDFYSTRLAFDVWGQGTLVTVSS
Chain of VYD224 (antibody) (VL): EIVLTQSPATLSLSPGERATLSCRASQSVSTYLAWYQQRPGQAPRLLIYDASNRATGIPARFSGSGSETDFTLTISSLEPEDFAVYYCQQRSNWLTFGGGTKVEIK
Chain of VYD222 (antibody) (VH): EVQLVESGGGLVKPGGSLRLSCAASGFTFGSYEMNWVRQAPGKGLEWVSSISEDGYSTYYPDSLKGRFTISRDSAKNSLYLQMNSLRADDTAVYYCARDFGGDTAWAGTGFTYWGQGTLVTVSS
Chain of VYD222 (antibody) (VL): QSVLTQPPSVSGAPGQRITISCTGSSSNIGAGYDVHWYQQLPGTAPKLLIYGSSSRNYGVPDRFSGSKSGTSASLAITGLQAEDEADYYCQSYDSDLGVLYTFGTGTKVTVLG
Chain of ADI-58125 (antibody) (VH): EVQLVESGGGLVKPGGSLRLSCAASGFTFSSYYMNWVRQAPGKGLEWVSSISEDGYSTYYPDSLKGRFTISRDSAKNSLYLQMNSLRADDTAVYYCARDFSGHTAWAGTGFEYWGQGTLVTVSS
Chain of ADI-58125 (antibody) (VL): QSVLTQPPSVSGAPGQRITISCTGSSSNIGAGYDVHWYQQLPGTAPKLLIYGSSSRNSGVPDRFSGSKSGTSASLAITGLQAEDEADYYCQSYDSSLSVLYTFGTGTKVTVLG

Substance	KD App [1] [nM]	KD App [2] [nM]	KD App [3] [nM]	KD App [4] [nM]	KD App [5] [nM]	KD App [6] [nM]	KD App [7] [nM]	KD App (SARS-CoV-1 (SARS-CoV)) [nM]	KD App (SARS-CoV-2 (SARS-CoV-2)) [nM]	KD App [8] [nM]	KD App [9] [nM]	KD App [10] [nM]
ADI-58125 (antibody)	1.07	0.79	0.57	1.83	1.03	0.96	1.53	1.02	3.2	2.72	1.32	
VYD222 (antibody)	0.24	0.45	0.23	0.9	0.15	0.67	0.49	0.44	0.54	0.74	0.97	
VYD224 (antibody)	13.5	15.9	9.13	0.93	1.63	0.32	10.8	15.6	1.68	12.3	0.33	0.87
